# Laboratory results as given in IntAct's records for PubMed 24076405.
# B1: Centrosomal P4.1-associated protein (Homo sapiens), Q9HC77 (parent)
# chain: MFLMPTSSELNSGQNFLTQWMTNPSRAGVILNRGFPILEADKEKRAAVDISTSFPIKGTHFSDSFSFINEEDSLLEEQKLESNNPYKPQSDKSETHTAFPCIKKGPQVAACHSAPGHQEENKNDFIPDLASEFKEGAYKDPLFKKLEQLKEVQQKKQEQLKRQQLEQLQRLMEEQEKLLTMVSGQCTLPGLSLLPDDQSQKHRSPGNTTTGERATCCFPSYVYPDPTQEETYPSNILSHEQSNFCRTAHGDFVLTSKRASPNLFSEAQYQEAPVEKNNLKEENRNHPTGESILCWEKVTEQIQEANDKNLQKHDDSSEVANIEERPIKAAIGERKQTFEDYLEEQIQLEEQELKQKQLKEAEGPLPIKAKPKQPFLKRGEGLARFTNAKSKFQKGKESKLVTNQSTSEDQPLFKMDRQQLQRKTALKNKELCADNPILKKDSKARTKSGSVTLSQKPKMLKCSNRKSLSPSGLKIQTGKKCDGQFRDQIKFENKVTSNNKENVTECPKPCDTGCTGWNKTQGKDRLPLSTGPASRLAAKSPIRETMKESESSLDVSLQKKLETWEREKEKENLELDEFLFLEQAADEISFSSNSSFVLKILERDQQICKGHRMSSTPVKAVPQKTNPADPISHCNRSEDLDHTAREKESECEVAPKQLHSLSSADELREQPCKIRKAVQKSTSENQTEWNARDDEGVPNSDSSTDSEEQLDVTIKPSTEDRERGISSREDSPQVCDDKGPFKDTRTQEDKRRDVDLDLSDKDYSSDESIMESIKHKVSEPSRSSSLSLSKMDFDDERTWTDLEENLCNHDVVLGNESTYGTPQTCYPNNEIGILDKTIKRKIAPVKRGEDLSKSRRSRSPPTSELMMKFFPSLKPKPKSDSHLGNELKLNISQDQPPGDNARSQVLREKIIELETEIEKFKAENASLAKLRIERESALEKLRKEIADFEQQKAKELARIEEFKKEEMRKLQKERKVFEKYTTAARTFPDKKEREEIQTLKQQIADLREDLKRKETKWSSTHSRLRSQIQMLVRENTDLREEIKVMERFRLDAWKRAEAIESSLEVEKKDKLANTSVRFQNSQISSGTQVEKYKKNYLPMQGNPPRRSKSAPPRDLGNLDKGQAASPREPLEPLNFPDPEYKEEEEDQDIQGEISHPDGKVEKVYKNGCRVILFPNGTRKEVSADGKTITVTFFNGDVKQVMPDQRVIYYYAAAQTTHTTYPEGLEVLHFSSGQIEKHYPDGRKEITFPDQTVKNLFPDGQEESIFPDGTIVRVQRDGNKLIEFNNGQRELHTAQFKRREYPDGTVKTVYANGHQETKYRSGRIRVKDKEGNVLMDTEL
# partner: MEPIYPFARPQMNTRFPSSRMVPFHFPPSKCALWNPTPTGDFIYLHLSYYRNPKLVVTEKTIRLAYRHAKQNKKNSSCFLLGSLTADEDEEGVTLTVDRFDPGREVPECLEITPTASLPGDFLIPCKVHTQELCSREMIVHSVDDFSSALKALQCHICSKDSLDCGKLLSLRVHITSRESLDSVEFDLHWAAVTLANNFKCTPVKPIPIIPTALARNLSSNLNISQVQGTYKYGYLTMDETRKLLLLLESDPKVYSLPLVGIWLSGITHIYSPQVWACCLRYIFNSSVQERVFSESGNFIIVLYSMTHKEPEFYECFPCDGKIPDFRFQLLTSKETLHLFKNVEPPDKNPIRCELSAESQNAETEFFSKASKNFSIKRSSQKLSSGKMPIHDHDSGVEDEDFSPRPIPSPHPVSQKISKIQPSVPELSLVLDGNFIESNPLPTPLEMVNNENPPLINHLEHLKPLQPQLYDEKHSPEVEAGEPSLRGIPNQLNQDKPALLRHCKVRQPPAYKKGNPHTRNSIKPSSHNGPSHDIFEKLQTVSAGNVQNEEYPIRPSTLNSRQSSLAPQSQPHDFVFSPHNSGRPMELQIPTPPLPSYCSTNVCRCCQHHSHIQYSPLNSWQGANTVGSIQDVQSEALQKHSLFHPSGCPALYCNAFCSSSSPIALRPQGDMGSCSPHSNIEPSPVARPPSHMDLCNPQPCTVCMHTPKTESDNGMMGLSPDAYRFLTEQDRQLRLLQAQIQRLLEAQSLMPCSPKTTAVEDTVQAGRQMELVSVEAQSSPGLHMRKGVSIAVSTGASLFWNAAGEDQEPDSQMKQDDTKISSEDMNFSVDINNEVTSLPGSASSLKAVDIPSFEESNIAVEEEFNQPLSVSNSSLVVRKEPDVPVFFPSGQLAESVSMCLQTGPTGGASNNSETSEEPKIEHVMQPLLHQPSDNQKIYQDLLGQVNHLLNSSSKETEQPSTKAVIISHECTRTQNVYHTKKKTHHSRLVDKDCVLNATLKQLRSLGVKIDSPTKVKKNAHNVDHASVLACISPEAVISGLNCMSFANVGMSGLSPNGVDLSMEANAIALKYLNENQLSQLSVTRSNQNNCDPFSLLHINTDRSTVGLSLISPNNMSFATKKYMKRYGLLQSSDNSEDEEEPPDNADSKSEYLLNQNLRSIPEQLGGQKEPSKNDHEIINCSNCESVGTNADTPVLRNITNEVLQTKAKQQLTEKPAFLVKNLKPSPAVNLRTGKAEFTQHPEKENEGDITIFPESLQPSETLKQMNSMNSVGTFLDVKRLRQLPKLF
# B2: SCL-interrupting locus protein (Homo sapiens), Q15468 (parent)
# chain: B1 partner
# Variants of: B1
# Conditions: with stil_human STIL
row,Variant,effect of a mutation on the interaction
1,Y1208A,decreasing interaction strength
2,Y1210A,decreasing interaction strength
3,F1229A,decreasing interaction strength
4,E1235K,decreasing interaction strength
5,E1235V,decreasing interaction strength

# Variants of: B2
# Conditions: with cpap_human CPAP
row,Variant,effect of a mutation on the interaction
1,R405I,decreasing interaction strength
2,K419E,decreasing interaction strength
